Experiment: soluble on expression in E. coli; label from the status in PepcDB or PDB records

Sequence	soluble on expression in E. coli
MRGSHHHHHHGSNSLSEANTKFMFDLFQQFRKSKENNIFYSPISITSALGMVLLGAKDNTAQQIKKVLHFDQVTENTTGKAATYHVDRSGNVHHQFQKLLTEFNKSTDAYELKIANKLFGEKTYLFLQEYLDAIKKFYQTSVESVDFANAPEESRKKINSWVESQTNEKIKNLIPEGNIGSNTTLVLVNAIYFKGQWEKKFNKEDTKEEKFWPNKNTYKSIQMMRQYTSFHFASLEDVQAKVLEIPYKGKDLSMIVLLPNEIDGLQKLEEKLTAEKLMEWTSLQNMRETRVDLHLPRFKVEESYDLKDTLRTMGMVDIFNGDADLSGMTGSRGLVLSGVLHKAFVEVTEEGAEAAAATAVVGFGSSPTSTNEEFHCNHPFLFFIRQNKTNSILFYGRFSSP	soluble
MQDLSAVKAFHALCQHKSLTAAAKALEQPKSTLSRRLAQLEEDLGQSLLMRQGNRLTLTKAGEVFAVYSEQLLELANKSQEALQELNNQVTGELTLVVHPNLIRGWLSQVLDEFMQQHSTLKIRLLSQFQHSDEVFEPDLIIWIEHAAPMGYRKERLGYWRYAAYASPKYLAHRDKPTHPRELIHHPWIDFIACRRAELELHHPEFGSYSLPALESRLQSDNLAMQADAIAKGRGIGLLPTWFANGFETAHPGSLIPCVNGWQSQPTEINCFYPLGRHPLRLRLFIDALRQARPDEWQ	not soluble
STTTTTKKPHVLVIPFPQSGHMVPHLDLTHQILLRGATVTVLVTPKNSSYLDALRSLHSPEHFKTLILPFPSHPCIPSGVESLQQLPLEAIVHMFDALSRLHDPLVDFLSRQPPSDLPDAILGSSFLSPWINKVADAFSIKSISFLPINAHSISVMWAQEDRSFFNDLETATTESYGLVINSFYDLEPEFVETVKTRFLNHHRIWTVGPLLPFKAGVDRGGQSSIPPAKVSAWLDSCPEDNSVVYVGFGSQIRLTAEQTAALAAALEKSSVRFIWAVRDAAKKVNSSDNSVEEDVIPAGFEERVKEKGLVIRGWAPQTMILEHRAVGSYLTHLGWGSVLEGMVGGVMLLAWPMQADHFFNTTLIVDKLRAAVRVGENRDSVPDSDKLARILAESAREDLPERVTLMKLREKAMEAIKEGGSSYKNLDELVAEMCL	soluble
MGSDFDHLVNSLSDVELLNLFIQSCSQTTINGVPVPRFPPEEIQKQFVGASYEHALYEAYLFYRHIKEYAQNLGVPLNKESKVLDFGCGWGRIIRFLFKDASDQNLLGIDVDPAMITLCNETLGRGIYKTASPHPPVEFISDNSLDIIFAYSVFSHLSEATAENWVKEFSRVLRPGGIFIATTQARYFLDFCQQFQEHPELIQTGWHKTLSQAFPDIHRAISDYENGKFVHSPTGAGDVRNSSFYGETVIPRTYIENHYEKYLKLQDFFDDVNRLPQALFVLQKILEHHHHHH	soluble
EDPSLDRPFISEGTTLKDLIYDMTTSGSGSGLPLLVQRTIARTIVLQESIGKGRFGEVWRGKWRGEEVAVKIFSSREERSWFREAEIYQTVMLRHENILGFIAADNKDNGTWTQLWLVSDYHEHGSLFDYLNRYTVTVEGMIKLALSTASGLAHLHMEIVGTQGKPAIAHRDLKSKNILVKKNGTCCIADLGLAVRHDSATDTIDIAPNHRVGTKRYMAPEVLDDSINMKHFESFKRADIYAMGLVFWEIARRCSIGGIHEDYQLPYYDLVPSDPSVEEMRKVVCEQKLRPNIPNRWQSCEALRVMAKIMRECWYANGAARLTALRIKKTLSQLSQQEGIKM	soluble
MSLTETTDLYRMSSSLRVVALAETLQRARAFASRLGIIRVTDTTRLDCIGIPVFASIRPTALPGSLCVNAGKGLRPEEARVGAYMEAIEFAMAEYGRSAVDYVMATPRDVLDGRSRPEAILDFCPVFGAQITLDDPMPCVEAEELLSSTRCLVPAELVYVPAPAVEGVQRHFGSSSNGLCSGNSVWEASVHGLAEVIERDIQSFCFLHDTSVLVDIASLPPQPAALARQIGEAGFTLRLRYVENIFELPYFAAYVMEPDPVDAVYICGGFGCHPFKEIAAVRAICEAVQGRLSFIHGGRDDLIERHRLLAQMNGEQELAFSRKLAAKVSRPEGMIGFEAIGDRSGEVCDLSSAWEVLVAAIRKVGIAHVCRVVFTQPHDPVQVLKLIVPRLEMFDRSTRRIGPRLRDHARFHEGHHHHHH	not soluble
HGGEAHMVPMDKTLKEFGADVQWDDYAQLFTLIKDGAYVKVKPGAQTAIVNGQPLALQVPVVMKDNKAWVSDTFINDVFQSGLDQTFQVEKRPHPLNALTADEIKQAVEIVKASADFKPNTRFTEISLLPPDKEAVWAFALENKPVDQPRKADVIMLDGKHIIEAVVDLQNNKLLSWQPIKDAHGMVLLDDFASVQNIINNSEEFAAAVKKRGITDAKKVITTPLTVGYFDGKDGLKQDARLLKVISYLDVGDGNYWAHPIENLVAVVDLEQKKIVKIEEGPVVPVPMTARPFDGRDRVAPAVKPMQIIEPEGKNYTITGDMIHWRNWDFHLSMNSRVGPMISTVTYNDNGTKRKVMYEGSLGGMIVPYGDPDIGWYFKAYLDSGDYGMGTLTSPIARGKDAPSNAVLLNETIADYTGVPMEIPRAIAVFERYAGPEYKHQEMGQPNVSTERRELVVRWISTVGNYDYIFDWIFHENGTIGIDAGATGIEAVKGVKAKTMHDETAKDDTRYGTLIDHNIVGTTHQHIYNFRLDLDVDGENNSLVAMDPVVKPNTAGGPRTSTMQVNQYNIGNEQDAAQKFDPGTIRLLSNPNKENRMGNPVSYQIIPYAGGTHPVAKGAQFAPDEWIYHRLSFMDKQLWVTRYHPGERFPEGKYPNRSTHDTGLGQYSKDNESLDNTDAVVWMTTGTTHVARAEEWPIMPTEWVHTLLKPWNFFDETPTLGALKKDK	soluble
MSKEIAKKRIEELRDLLNTFNYQYHVLDNPSVSDAEYDRNMQELIKLEAENPEFMSEDSPSIRVGGTVLDIFEKVTHKSPMLSLGNAFNEGDLRDFDRRVRQGIDDANVRYICELKIDGLAVSLHYEKGRFIQGATRGDGVTGEDITQNLKTIKAIPLRLNEEVTLEARGEAYMPKRSFVKLNEEKEQNGEDVFANPRNAAAGSIRQLDPKIAAKRNLSMFVYGLANVEEKTIPSHSESLDYLGELGFKTNPNRRTCETIEEVIAYVEEWQEKRPHLDYEIDGIVIKVDDVALQESLGTTAKSPRWAIAYKFPAEEVVTRLTGIELSVGRTGVVTPTAELEPVRVAGTIVRRASLHNEDLIREKDIRIGDYVVVKKAGDIIPEVVNVIFDKRTGGEEEYHMPTHCPACESELVRLEEEVALRCINPTCPAQIREGLIHFVSRNAMNIDGLGERVITQLFDADYIRTFADLYSLTKEQLLQLERFGEKSATNLVQAIENSKENSLERLLFGLGIRHVGAKAARTFAEHFETMDALVKATEEELKAINEIGEKMAQSVVAYFDNEDVLELLQQFKEYGVNMTYKGIKIADLQNVESYFAGKTVVLTGKLEVMGRSEAKKKIEALGGKVTGSVSKSTDLVVAGEAAGSKLAQAEKHNVEVWNEERFLQELNK	soluble
MSLDLGTTKYIIYAELIADGYVEKHDVIGAIFGQTEGLLGDELDLRELQKTGRVGRIDVELTNINGKSIAKITVPSSLDRIETSILAATLETIDRVGPCVATVKVIDIEDIRKKKREYIVERAKEILKQLMSNIDVNTIIEEVKESVRMGEIIEYGPERLPAGPAVDEGHHHHHH	soluble
MNPSLENLQLYPFQKLTKLFEDLVPRDSLPTPIGLHIGEPRHSTPEFIRQELINSLEGLAHYPTVLGTDRLRASIATWLTQRYHLSSIDPDTEVIPVNGSREALFSFAQAVIDTDHKAIQPAVVCQNPFYQIYEGAALLAGATPYFLNQLPENNFSADTAQLPDTVWERTQLVYICSPNNPTGKVLTLDEWKHLFDLSDRYGFVIAADECYSEIYFDEGHPPLGALEAAEKLGRSGFPRLVVFSSLSKRSNVPGMRSGFVAGDATILRKFLLYRTYHGSAMNPAVQAASTVAWSDEQHVAENRKLYYEKFTGAMHILGDTLPVSMPDAGFYLWLRTPVSGIEFSRRLYREGNVTVLPGSYLAREAHGMDPGEDFVRIALVAPVVECMEAMERIRDIARKF	not soluble
MVEEICHICNDKSTGKHYGAISCDGCKGFFRRSIRKRYHYQCRFEQNCDVTKNKRNACRACRLQKCVKAGMKSNAIQNERDAIGKRKKTTGAEKEDLIDQLVAAETLCQQLRSSVIKNTSSLAPYDCGKVKWNYEDARAATLDDIGKSIHQQLVLFIEWAKSLPQFSFLAQADQAALLKGGAASIIVLGVAYRSICLTVENTICLANDTLLPKEHATQVGDINCVVGRIIDEIVNPMRRLNMDLIEYVALKAILFFNPVVREINDQSPVENARYAFLRSLQRRCTDKALENMEDESMDCRSGKLLLLLPSLQAIAQQLVEDVQLARLFGLVNVDSLMEELILNDMKPSDPQILQTSLASPVNSSVKAEVELEE	soluble
MSLILVKDAIITGKKQDLLVEGNIIKKIGNISISEVSKDETEIIDGKNCVLIPGLINTHTHVPMSLFRGVADDIPLMEWLSGHIWPMESKLNEKIVYAGTLLGTIEMIKSGTTAFNDMYFFLDSIIKAVDETGIRSTIAYGMIDLFDEEKREKELKTAKESLEMIKNLNNSRITGALGPHAPYTCSKEILESTNALAREYNVPIHIHMNETLDEINQVVEKTGMRPFEYLNSFGFFDNVNTICAHCVHLSASEIQIMKEKNIFAAHNPVSNLKLASGVSPVLKLLENNIPVTLGTDGCGSNNNMNLFEEIKAAALIHKGVNLNPVAVIAKDAFDFGTKNGAKALNINSGEIKEGKLADFVLINMKKPYLTPKENIESHLVYSFNGVVDKVVIDGKLVLNDGKMVNIDEEKVYEIAEEAYFELANEGHHHHHH	not soluble
MKKRRFPRVNAVLSRWGVALSDARETQAEQARLADFEARGGLEAPAYALSPGMRTFDLAPLVEEYAQHGEALAALHDPARNQTGYRSGNGYYDTPDAEALYLMIRRYQPRRVIEVGCGNSTRITRQAALDGGLETEITAIDPWPRADIAGVVDRFEQARLEEVDPAVFAALEADDVLFIDSSHQVRMSNDVAHLFCRIIPALAPGVVIHVHDVFLPYEYPKRFFYDCPSWAEQYVLHALIQSGGYDILWPGYYLQRARPDAVEALPFLGQGRAQSFWIRKL	not soluble
KMGPEYTKMQNLVKSEGLHTVCQEAGCPNIYECWEDREATFLIGGDQCTRRCDFCQIDTGKPEALDRDEPRRVGESVVTMDLNYATITGVARDDLEDGGAWLYAETVRQIHAQTAGREAGRTKVELLAPDFNAEPDQLAEVFSARPEVFAHNVETVPRIFKRIRPGFRYERSLKVITEARDYGLVTKSNLILGMGETREEVSEALRQLHDAGCELITITQYLRPSVRHHPVERWVKPHEFVELKEEAEEIGFSGVMSGPLVRSSYRAGRLYQMAMELRQSAAPQGGAQVASQAV	not soluble
MGSDKIHHHHHHMKTEITLLKGETVMVEPKEFLKAGQAFHGHKCPAMPMGLRVGAAAMNKLGVERSKDGQLLDLVELGDGHCATCFADGIQMITGCTFGKGNIKKLHYGKWGVTLIDTQTGRAVRVTPKAEAMLANKKSEFFTEYRMKHIPASKVPAEVVEPLVEKVMNAPDDMLLNIGDVFDYEVPPKVESFSGFVCDICGEMVVEGYGRPLDDKKVCQPCYEKAQREH	not soluble
ENENRVEALEVRLAFQDELLDALNATVARQQKEIDLLQQQIRLLYQQFRNAQPDDAPGGSLRDDIPPHY	soluble
METQIHQLEQEAYTAVLRAFKAQSDAISWEKESLITELRKELRVSDDEHRELLSRVNKDDTIQRIRDWRQGGASQITRHATIQPFDVLPSPTFSAARKKQKTFPSYNPSIGATGNRSFNNRLVSSGISGNESAEALIGRKVWTKWPEDNHFYEAIITQYNADEGRHALVYDIHAANETWEWVDLKEIPPEDIRWDGEESGVALNIGHGSASFRGNRRGQIHGGRGRGPRIHQPRRELVPPPTQQNGSGGRRTSSDDIELFNTDSLVKEVERVFDSTHPDPLELDKAKKMLKEHEQALIAAIARLADTSDGEMDGDPPYSHDHPMPQG	not soluble
MAHHHHHHMFSFYIYRKKTISWDEVTINEQDKERGSRMKILEPNTPFNFILMDSASEDEASKYGDVKGSDEGQNNIADDLINKLNQLVEKQENKGVSNIDFKEKRKKHYNEYKMLQKLRKSGTLDDIDEEYKPDNKDSNCDNSVSQEFPCYIARNFVVISL	not soluble
